*1 amine or outer side, *2 acyl side, *3 side chain or, on linkers, in order; H or OH if unused. Where no end group is shown, it is not given here. Side-chain parts run from the residue outwards. [ ]: non-standard residue; d: D form. The star is where a group is joined. C20 diacid = O=C(O)CCCCCCCCCCCCCCCCCCC(=O)*; γGlu = O=C(O)[C@H](CCC(=O)[*:2])N[*:1]; αMeL = CC(C)C[C@](C)(N)C(=O)O; αMeK = C[C@](N)(CCCCN)C(=O)O; AEEA = NCCOCCOCC(=O)O; Aib = CC(C)(N)C(=O)O

The target of test [1] is T1, human GLP-1 receptor (human), P43220.
T1 chain: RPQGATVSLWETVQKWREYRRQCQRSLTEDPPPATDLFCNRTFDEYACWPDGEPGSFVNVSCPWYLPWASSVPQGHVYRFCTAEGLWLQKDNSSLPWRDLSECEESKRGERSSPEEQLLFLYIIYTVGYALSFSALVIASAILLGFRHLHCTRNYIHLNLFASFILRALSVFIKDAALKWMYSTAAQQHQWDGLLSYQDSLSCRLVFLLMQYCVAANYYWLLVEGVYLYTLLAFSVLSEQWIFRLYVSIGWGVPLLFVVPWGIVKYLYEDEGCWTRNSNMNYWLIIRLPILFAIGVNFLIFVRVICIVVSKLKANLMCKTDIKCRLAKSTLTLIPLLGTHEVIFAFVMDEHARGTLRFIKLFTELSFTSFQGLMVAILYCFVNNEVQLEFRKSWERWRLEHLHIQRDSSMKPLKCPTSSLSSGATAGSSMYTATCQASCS
The experiment in a line: cell-based or functional assay.

For test [2], the target named is human glucagon receptor (human), P47871. The test is described as follows: cell-based or functional assay.
human glucagon receptor (human), P47871, sequence (P47871 26-477): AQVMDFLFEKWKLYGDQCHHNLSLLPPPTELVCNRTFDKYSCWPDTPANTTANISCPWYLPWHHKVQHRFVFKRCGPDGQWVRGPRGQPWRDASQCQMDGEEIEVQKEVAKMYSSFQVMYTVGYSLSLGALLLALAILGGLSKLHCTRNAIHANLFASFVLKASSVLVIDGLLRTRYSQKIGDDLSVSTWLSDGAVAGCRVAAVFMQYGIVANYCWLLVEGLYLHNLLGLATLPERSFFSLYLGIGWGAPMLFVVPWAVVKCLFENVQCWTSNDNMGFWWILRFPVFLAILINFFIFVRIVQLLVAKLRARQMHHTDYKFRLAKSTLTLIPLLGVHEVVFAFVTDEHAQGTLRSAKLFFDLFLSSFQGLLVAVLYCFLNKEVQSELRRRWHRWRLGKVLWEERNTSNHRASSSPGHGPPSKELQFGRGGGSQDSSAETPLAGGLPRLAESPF
The target of test [3] is T2, human GIP receptor (human), P48546.
T2 chain: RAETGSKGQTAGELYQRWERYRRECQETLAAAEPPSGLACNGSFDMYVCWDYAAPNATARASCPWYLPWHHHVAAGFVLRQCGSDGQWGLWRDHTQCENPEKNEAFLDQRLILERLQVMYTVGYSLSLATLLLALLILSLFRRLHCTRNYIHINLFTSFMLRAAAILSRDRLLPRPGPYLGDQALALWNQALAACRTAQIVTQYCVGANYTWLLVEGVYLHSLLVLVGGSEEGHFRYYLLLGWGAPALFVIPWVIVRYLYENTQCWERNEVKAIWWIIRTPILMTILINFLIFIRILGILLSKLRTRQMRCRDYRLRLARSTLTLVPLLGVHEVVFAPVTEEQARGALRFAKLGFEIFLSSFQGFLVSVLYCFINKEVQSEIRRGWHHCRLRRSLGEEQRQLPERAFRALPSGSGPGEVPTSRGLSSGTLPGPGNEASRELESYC
The experiment in a line: cell-based or functional assay.

Test [4] concerns the target T1, human GLP-1 receptor (human), P43220. The experiment in a line: radioligand competition SPA, HEK293 membranes.
Test [5] has as its target human glucagon receptor (human), P47871. The test is described as follows: radioligand competition SPA, HEK293 membranes.
Test [6] has as its target T2, human GIP receptor (human), P48546. The experiment in a line: radioligand competition SPA, HEK293 membranes.

B1: Example 15 (peptide)
peptide: Y[Aib]QGTFTSDYSILLDKK([AEEA-AEEA-γGlu-C20 diacid])AQ[Aib]AFIEYLLA[Aib]GPSSGAPPPS-NH2
modifications: N-terminus assumed
SMILES: CC[C@H](C)[C@H](NC(=O)[C@H](Cc1ccccc1)NC(=O)[C@H](C)NC(=O)C(C)(C)NC(=O)[C@H](CCC(N)=O)NC(=O)[C@H](C)NC(=O)[C@H](CCCCNC(=O)COCCOCCNC(=O)COCCOCCNC(=O)CC[C@H](NC(=O)CCCCCCCCCCCCCCCCCCC(=O)O)C(=O)O)NC(=O)[C@H](CCCCN)NC(=O)[C@H](CC(=O)O)NC(=O)[C@H](CC(C)C)NC(=O)[C@H](CC(C)C)NC(=O)[C@@H](NC(=O)[C@H](CO)NC(=O)[C@H](Cc1ccc(O)cc1)NC(=O)[C@H](CC(=O)O)NC(=O)[C@H](CO)NC(=O)[C@@H](NC(=O)[C@H](Cc1ccccc1)NC(=O)[C@@H](NC(=O)CNC(=O)[C@H](CCC(N)=O)NC(=O)C(C)(C)NC(=O)[C@@H](N)Cc1ccc(O)cc1)[C@@H](C)O)[C@@H](C)O)[C@@H](C)CC)C(=O)N[C@@H](CCC(=O)O)C(=O)N[C@@H](Cc1ccc(O)cc1)C(=O)N[C@@H](CC(C)C)C(=O)N[C@@H](CC(C)C)C(=O)N[C@@H](C)C(=O)NC(C)(C)C(=O)NCC(=O)N1CCC[C@H]1C(=O)N[C@@H](CO)C(=O)N[C@@H](CO)C(=O)NCC(=O)N[C@@H](C)C(=O)N1CCC[C@H]1C(=O)N1CCC[C@H]1C(=O)N1CCC[C@H]1C(=O)N[C@@H](CO)C(N)=O
With B1, the cAMP EC50 (0.1% casein) in test [1] was found to be 0.253 nM; in test [2] it was 0.131 nM; in test [3], 0.0689 nM. Also, the cAMP EC50 (FBS and BSA present) in test [1] is 10.7 nM; in test [2], 5.92 nM; in test [3], 1.47 nM. The results for the Ki in test [4], in test [5] and in test [6] were 5.8 nM, 4.56 nM and 0.0972 nM, respectively.
As to Y[Aib]QGTFTSDYSILLDKK([AEEA-AEEA-γGlu-C20 diacid])AQ[Aib]AFIEYLLEGGPSSGAPPPS-NH2 [Example 16], the results for the cAMP EC50 (0.1% casein) in test [1], in test [2] and in test [3] were 0.157 nM, 0.174 nM and 0.114 nM, respectively. For the same molecule, the cAMP EC50 (FBS and BSA present) in test [1] was found to be 19 nM; in test [2], 13.2 nM; in test [3], 4.37 nM. Also, the values for the Ki in test [4], in test [5] and in test [6] were 16.1 nM, 11.5 nM and 0.106 nM, respectively.
On to Y[Aib]QGTFTSDYSI[αMeL]LDKK([AEEA-AEEA-γGlu-C20 diacid])AQ[αMeK]AFIEYLLEGGPSSGAPPPS-NH2 [Example 3], for which the cAMP EC50 (0.1% casein) in test [1] is 0.107 nM; in test [2], 0.152 nM; in test [3], 0.0376 nM. The figures for the cAMP EC50 (FBS and BSA present) in test [2] and in test [3] were 8.03 nM and 1.91 nM, respectively. Moreover, the Ki was 6.06 nM in test [4], 12 nM in test [5] and 0.0446 nM in test [6].

Source of the values: patent US20250313605A1.
